Here are results for four molecules from publication doi:10.1101/303537 (bioRxiv, 2018).

Experiment [1] has as its target Retinoblastoma binding protein 7 (RBBP7) (human, UniProt Q16576 1-425). Kind of experiment: fluorescence polarisation. In general terms: Fluorescence polarisation rises when a labelled molecule tumbles more slowly, as on binding a larger partner.
Experiment [2] has as its target Retinoblastoma binding protein 4 (RBBP4) (human, UniProt Q09028 1-425). Briefly: fluorescence polarisation.

Where no end group is shown, it is not given here.

Retinoblastoma binding protein 4 (RBBP4), sequence (Q09028 whole entry): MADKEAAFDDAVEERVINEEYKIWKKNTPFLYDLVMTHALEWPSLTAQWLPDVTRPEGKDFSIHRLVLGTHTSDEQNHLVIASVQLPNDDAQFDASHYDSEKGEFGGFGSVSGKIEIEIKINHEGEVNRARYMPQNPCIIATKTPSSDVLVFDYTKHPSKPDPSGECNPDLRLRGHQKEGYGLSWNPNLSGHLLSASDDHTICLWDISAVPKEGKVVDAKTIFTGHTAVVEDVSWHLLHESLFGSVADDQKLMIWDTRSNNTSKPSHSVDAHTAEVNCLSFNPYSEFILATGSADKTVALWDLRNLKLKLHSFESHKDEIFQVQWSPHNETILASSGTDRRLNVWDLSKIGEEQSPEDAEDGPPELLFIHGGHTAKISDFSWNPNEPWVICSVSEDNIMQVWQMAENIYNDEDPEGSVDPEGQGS
Retinoblastoma binding protein 7 (RBBP7), sequence (Q16576 whole entry): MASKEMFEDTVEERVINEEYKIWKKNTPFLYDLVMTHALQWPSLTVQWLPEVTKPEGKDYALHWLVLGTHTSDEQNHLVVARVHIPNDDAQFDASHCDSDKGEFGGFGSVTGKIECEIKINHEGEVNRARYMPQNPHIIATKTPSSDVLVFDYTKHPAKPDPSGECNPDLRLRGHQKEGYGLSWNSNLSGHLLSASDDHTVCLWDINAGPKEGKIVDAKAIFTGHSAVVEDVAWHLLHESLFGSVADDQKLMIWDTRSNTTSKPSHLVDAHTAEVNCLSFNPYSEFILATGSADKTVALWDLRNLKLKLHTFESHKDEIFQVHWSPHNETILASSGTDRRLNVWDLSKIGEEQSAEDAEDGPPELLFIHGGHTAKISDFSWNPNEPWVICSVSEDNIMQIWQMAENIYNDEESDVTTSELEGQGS

B1: FITC-labeled histone H4 (16–41) peptide (peptide)
peptide: not shown
modifications: FITC label (position not given)
In turn, B1 had a Kd in experiment [1] of 135 ± 12 nM.
As for KSKKKSRKGRPRKTN (also: FITC label (position not given here)) [FITC-labeled PHF6 (157–171) peptide], the Kd in experiment [2] worked out at 201 ± 102 nM.
As to MSRRKQSNPRQIKRS (also: FITC label (position not given here)) [FITC-labeled FOG-1 (1–15) peptide], the affinity in experiment [2], expressed as Kd, was 488 ± 245 nM.
Consider LIAPIFLHRTLTYMSHR (also: FITC label (position not given here)) [FITC-labeled SUZ12 (105–121) peptide], for which the Kd in experiment [2] turned out to be 6400 ± 600 nM.

What is called Kd is the concentration at which binding is half-saturated. Read a low Kd as tighter binding.
